Assay results taken from patent US20120329994A1.

Assays:
[1] = biological target: WNV E ectodomain (residues 1-404) of the New York 1999 strain, expressed in E. coli and refolded (West Nile virus, New York 1999 strain) (UniProt Q9Q6P4); test: SPR
[2] = biological target: WNV DIII (residues 296-404) of the New York 1999 strain, expressed in E. coli and refolded (West Nile virus, New York 1999 strain) (UniProt Q9Q6P4); test: SPR

| Substance | Kd [1] | Kd [2] |
| --- | --- | --- |
| mHu-E16 (humanized E16 monoclonal antibody produced in CHO cells) | 45 nM | 32 nM |
| pHu-E16 (plant-produced humanized E16 monoclonal antibody, made in N. benthamiana) | 46 nM | 41 nM |
